Experimental findings from patent publication US20090214428A1 (HENRY M JACKSON FOUNDATION FOR THE ADVANCEMENT OF MILITARY …, published 2009) are described below.

The target in this assay is T1, myc-tagged NiV G (full-length, from lysates of infected cells) (Nipah virus, UniProt Q9IH62 1-602).
T1 sequence: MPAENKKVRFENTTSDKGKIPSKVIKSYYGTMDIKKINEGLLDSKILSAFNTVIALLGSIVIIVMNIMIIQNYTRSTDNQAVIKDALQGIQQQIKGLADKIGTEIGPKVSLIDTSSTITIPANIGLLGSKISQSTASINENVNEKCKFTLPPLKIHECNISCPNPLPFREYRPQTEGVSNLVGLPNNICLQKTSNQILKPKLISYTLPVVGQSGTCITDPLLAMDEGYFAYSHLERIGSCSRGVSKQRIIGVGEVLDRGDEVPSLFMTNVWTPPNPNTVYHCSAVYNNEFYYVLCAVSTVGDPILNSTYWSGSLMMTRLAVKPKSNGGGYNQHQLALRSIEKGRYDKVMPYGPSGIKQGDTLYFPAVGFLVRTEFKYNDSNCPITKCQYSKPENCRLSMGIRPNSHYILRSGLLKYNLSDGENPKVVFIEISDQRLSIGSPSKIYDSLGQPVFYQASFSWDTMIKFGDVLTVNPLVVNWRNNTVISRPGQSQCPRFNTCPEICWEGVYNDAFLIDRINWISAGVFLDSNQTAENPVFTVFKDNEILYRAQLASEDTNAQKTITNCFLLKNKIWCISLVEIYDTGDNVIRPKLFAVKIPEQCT
The assay is described as follows: immunoprecipitation of 35S-labelled myc-tagged G from cell lysate.

B1: Fab m102 (Fab, V domains shown)
VH: EVQLVQSGAEVKKPGSSVKVSCKSSGGTFSNYAINWVRQAPGQGLEWMGGIIPILGIANYAQKFQGRVTITTDESTSTAYMELSSLRSEDTAVYYCARGWGREQLAPHPSQYYYYYYGMDVWGQGTTVTVSS
VL: EIVLTQSPGTLSLSPGERATLSCRASQSITNGRLAWYQQKPGQAPRLLIYGVSSRASGIPERFSGSGSGTDFTLTISRLEPEDFAVYYCQQYGSSVLFGPGTKVDIKR
Turning to B1, the binding result was “binds”.
